Measured values published in article PMC11463468.

Columns and labels:
MBD-Halo-AF660 [1] = target: T1, MBD-Halo-AF660 (Homo sapiens, UniProt Q9UIS9 1-77); assay: single-molecule TIRF
T1 sequence: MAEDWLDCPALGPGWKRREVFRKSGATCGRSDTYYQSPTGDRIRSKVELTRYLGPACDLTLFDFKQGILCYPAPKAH

MBD-Halo-AF660 [2] = target: T1, MBD-Halo-AF660; assay: single-molecule TIRF; remark: listed apart in the source
MBD-Halo-AF660 [3] = target: T1, MBD-Halo-AF660; assay: single-molecule TIRF; remark: listed apart in the source
MBD-Halo-AF660 [4] = target: T1, MBD-Halo-AF660; assay: single-molecule TIRF; remark: listed apart in the source
MBD-Halo-AF660 [5] = target: T1, MBD-Halo-AF660; assay: single-molecule TIRF; remark: listed apart in the source
MBD-Halo-AF660 [6] = target: T1, MBD-Halo-AF660; assay: single-molecule TIRF; remark: listed apart in the source
MBD-Halo-AF660 [7] = target: T1, MBD-Halo-AF660; assay: single-molecule TIRF; remark: listed apart in the source
MBD-Halo-AF660 [8] = target: T1, MBD-Halo-AF660; assay: single-molecule TIRF; remark: listed apart in the source
MBD-Halo-AF660 [9] = target: T1, MBD-Halo-AF660; assay: single-molecule TIRF; remark: listed apart in the source
MBD-Halo-AF660 [10] = target: T1, MBD-Halo-AF660; assay: single-molecule TIRF; remark: listed apart in the source
MBD-Halo-AF660 [11] = target: T1, MBD-Halo-AF660; assay: single-molecule TIRF; remark: listed apart in the source
MBD-Halo-AF660 [12] = target: T1, MBD-Halo-AF660; assay: EMSA
[13] = target: T2, MBD-Halo (MBD1 MBD-GGGSG-HaloTag) (Homo sapiens, UniProt Q9UIS9 1-77); assay: EMSA
T2 sequence: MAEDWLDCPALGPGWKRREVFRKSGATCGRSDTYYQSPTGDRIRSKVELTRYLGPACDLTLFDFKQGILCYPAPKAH

MBD-Halo-AF660 [14] = target: T1, MBD-Halo-AF660; assay: single-molecule TIRF; remark: listed apart in the source
MBD-Halo-AF660 [15] = target: T1, MBD-Halo-AF660; assay: single-molecule TIRF; remark: listed apart in the source
MBD-Halo-AF660 [16] = target: T1, MBD-Halo-AF660; assay: single-molecule TIRF; remark: listed apart in the source

B1: CPO alone (NTC) (ssDNA)
DNA: ATAATTAATAGCATCAGCAGGAAGAC
- binding result (MBD-Halo-AF660 [1]): no binding

B2: SM single-molecule (M7-A39m-CPO) (dsDNA)
DNA 1: GTCTTCCTGCTGATGCAATCCGCTAGGTCGCGAGTCTCCGCCGCGAGAGGGCCGG
DNA 2: CCGGCCCTCTCGCGGCGGAGACTCGCGACCTAGCGGATT
DNA 3: ATAATTAATAGCATCAGCAGGAAGAC
modifications: 5mC strand 1: 21,29,31,39,42,44,53; strand 2: 2,11,13,16,24,26,34
- binding result (MBD-Halo-AF660 [2]): binds

B3: M3a-A39m-CP (dsDNA)
DNA 1: GTCTTCCTGCTGATGCAATCCGCTAGGTCGCGAGTCTCCGCCGCGAGAGGGCCGG
DNA 2: CCGGCCCTCTCGCGGCGGAGACTCGCGACCTAGCGGATT
DNA 3: GCATCAGCAGGAAGAC
modifications: 5mC strand 1: 39,42,44; strand 2: 2,11,13,16,24,26,34
- binding result (MBD-Halo-AF660 [3]): binds

B4: M4a-CPO (structured_DNA)
DNA 1: GTCTTCCTGCTGATGCAATCCGCTAGGTCGCGAGTCTCCGCCGCGAGAGGGCCGG
DNA 2: ATAATTAATAGCATCAGCAGGAAGAC
modifications: 5mC strand 1: 29,31,42,44
- binding result (MBD-Halo-AF660 [4]): binds

B5: M7-A17O-CP (mixed)
DNA 1: GTCTTCCTGCTGATGCAATCCGCTAGGTCGCGAGTCTCCGCCGCGAGAGGGCCGG
DNA 2: CTTATCTGTTTCGCGACCTAGCGGATT
DNA 3: GCATCAGCAGGAAGAC
modifications: 5mC strand 1: 21,29,31,39,42,44,53
- binding result (MBD-Halo-AF660 [5]): binds

B6: M7-A17O-CPO (mixed)
DNA 1: GTCTTCCTGCTGATGCAATCCGCTAGGTCGCGAGTCTCCGCCGCGAGAGGGCCGG
DNA 2: CTTATCTGTTTCGCGACCTAGCGGATT
DNA 3: ATAATTAATAGCATCAGCAGGAAGAC
modifications: 5mC strand 1: 21,29,31,39,42,44,53
- binding result (MBD-Halo-AF660 [6]): binds

B7: M7-A39O-CP (mixed)
DNA 1: GTCTTCCTGCTGATGCAATCCGCTAGGTCGCGAGTCTCCGCCGCGAGAGGGCCGG
DNA 2: CTTATCTGTTCCGGCCCTCTCGCGGCGGAGACTCGCGACCTAGCGGATT
DNA 3: GCATCAGCAGGAAGAC
modifications: 5mC strand 1: 21,29,31,39,42,44,53
- binding result (MBD-Halo-AF660 [7]): no binding

B8: M7-A39-CP (dsDNA)
DNA 1: GTCTTCCTGCTGATGCAATCCGCTAGGTCGCGAGTCTCCGCCGCGAGAGGGCCGG
DNA 2: CCGGCCCTCTCGCGGCGGAGACTCGCGACCTAGCGGATT
DNA 3: GCATCAGCAGGAAGAC
modifications: 5mC strand 1: 21,29,31,39,42,44,53
- binding result (MBD-Halo-AF660 [7]): no binding

B9: M0-CP (structured_DNA)
DNA 1: GTCTTCCTGCTGATGCAATCCGCTAGGTCGCGAGTCTCCGCCGCGAGAGGGCCGG
DNA 2: GCATCAGCAGGAAGAC
- binding result (MBD-Halo-AF660 [7]): no binding

B10: M7-A39m-CP (dsDNA)
DNA 1: GTCTTCCTGCTGATGCAATCCGCTAGGTCGCGAGTCTCCGCCGCGAGAGGGCCGG
DNA 2: CCGGCCCTCTCGCGGCGGAGACTCGCGACCTAGCGGATT
DNA 3: GCATCAGCAGGAAGAC
modifications: 5mC strand 1: 21,29,31,39,42,44,53; strand 2: 2,11,13,16,24,26,34
- binding result (MBD-Halo-AF660 [8]): binds

B11: M2c-A39m-CP (dsDNA)
DNA 1: GTCTTCCTGCTGATGCAATCCGCTAGGTCGCGAGTCTCCGCCGCGAGAGGGCCGG
DNA 2: CCGGCCCTCTCGCGGCGGAGACTCGCGACCTAGCGGATT
DNA 3: GCATCAGCAGGAAGAC
modifications: 5mC strand 1: 42,53; strand 2: 2,11,13,16,24,26,34
- binding result (MBD-Halo-AF660 [7]): no binding

B12: M7-CP (structured_DNA)
DNA 1: GTCTTCCTGCTGATGCAATCCGCTAGGTCGCGAGTCTCCGCCGCGAGAGGGCCGG
DNA 2: GCATCAGCAGGAAGAC
modifications: 5mC strand 1: 21,29,31,39,42,44,53
- binding result (MBD-Halo-AF660 [9]): binds

B13: M4a-A17O-CP (mixed)
DNA 1: GTCTTCCTGCTGATGCAATCCGCTAGGTCGCGAGTCTCCGCCGCGAGAGGGCCGG
DNA 2: CTTATCTGTTTCGCGACCTAGCGGATT
DNA 3: GCATCAGCAGGAAGAC
modifications: 5mC strand 1: 29,31,42,44
- binding result (MBD-Halo-AF660 [10]): binds

B14: M4a-A39m-CP (dsDNA)
DNA 1: GTCTTCCTGCTGATGCAATCCGCTAGGTCGCGAGTCTCCGCCGCGAGAGGGCCGG
DNA 2: CCGGCCCTCTCGCGGCGGAGACTCGCGACCTAGCGGATT
DNA 3: GCATCAGCAGGAAGAC
modifications: 5mC strand 1: 29,31,42,44; strand 2: 2,11,13,16,24,26,34
- binding result (MBD-Halo-AF660 [11]): binds

B15: SM 55 bp (M7/M7_rev) (dsDNA)
DNA 1: GTCTTCCTGCTGATGCAATCCGCTAGGTCGCGAGTCTCCGCCGCGAGAGGGCCGG
DNA 2: CCGGCCCTCTCGCGGCGGAGACTCGCGACCTAGCGGATTGCATCAGCAGGAAGAC
modifications: 5mC strand 1: 21,29,31,39,42,44,53; strand 2: 2,11,13,16,24,26,34
- binding result (MBD-Halo-AF660 [12]): binds
- binding result [13]: binds

B16: M1b-A39m-CP (dsDNA)
DNA 1: GTCTTCCTGCTGATGCAATCCGCTAGGTCGCGAGTCTCCGCCGCGAGAGGGCCGG
DNA 2: CCGGCCCTCTCGCGGCGGAGACTCGCGACCTAGCGGATT
DNA 3: GCATCAGCAGGAAGAC
modifications: 5mC strand 1: 53; strand 2: 2,11,13,16,24,26,34
- binding result (MBD-Halo-AF660 [7]): no binding

B17: M4a-CP (structured_DNA)
DNA 1: GTCTTCCTGCTGATGCAATCCGCTAGGTCGCGAGTCTCCGCCGCGAGAGGGCCGG
DNA 2: GCATCAGCAGGAAGAC
modifications: 5mC strand 1: 29,31,42,44
- binding result (MBD-Halo-AF660 [14]): binds

B18: M2a-A39m-CP (dsDNA)
DNA 1: GTCTTCCTGCTGATGCAATCCGCTAGGTCGCGAGTCTCCGCCGCGAGAGGGCCGG
DNA 2: CCGGCCCTCTCGCGGCGGAGACTCGCGACCTAGCGGATT
DNA 3: GCATCAGCAGGAAGAC
modifications: 5mC strand 1: 29,31; strand 2: 2,11,13,16,24,26,34
- binding result (MBD-Halo-AF660 [15]): binds

B19: M7-CPO (structured_DNA)
DNA 1: GTCTTCCTGCTGATGCAATCCGCTAGGTCGCGAGTCTCCGCCGCGAGAGGGCCGG
DNA 2: ATAATTAATAGCATCAGCAGGAAGAC
modifications: 5mC strand 1: 21,29,31,39,42,44,53
- binding result (MBD-Halo-AF660 [16]): binds
